Data on nine molecules can be found in US20190359653A1 (Genentech, published 2019).

* marks the point of attachment. Palmitoyl = CCCCCCCCCCCCCCCC(=O)*; Myristoyl = CCCCCCCCCCCCCC(=O)*; Lauroyl = CCCCCCCCCCCC(=O)*; Decanoyl = CCCCCCCCCC(=O)*; Octanoyl = CCCCCCCC(=O)*

The first experiment concerns the target T1, FZD7 receptor of HEK293-TB cells (human, UniProt O75084 33-574). In words: cell-based or functional assay.
With Ac-SDDLEFWCHVK(Lauroyl)Y-NH2 (also: dimer via disulfide bond at Cys8) [dFz7-21Δ2.M13K (C12)], the “Best Fit IC50 (nM), Wnt3a-mediated β-catenin signaling in HEK293-TB cells (50 ng/mL mWnt3a)” value was found to be 553 nM.
The same measure, in the same setting: with Ac-SDDLEFWCHVK(Octanoyl)Y-NH2 (also: dimer via disulfide bond at Cys8) [dFz7-21Δ2.M13K (C8)] the figure was 2130 nM.
Consider Ac-SDDLEFWCHVK(Palmitoyl)Y-NH2 (also: dimer via disulfide bond at Cys8) [dFz7-21Δ2.M13K (C16)], for which the “Best Fit IC50 (nM), Wnt3a-mediated β-catenin signaling in HEK293-TB cells (50 ng/mL mWnt3a)” value turned out to be 607 nM.
Still for that read-out and setting: in the case of Ac-SDDLEFWCHVK(Myristoyl)Y-NH2 (also: dimer via disulfide bond at Cys8) [dFz7-21Δ2.M13K (C14)] it was 607 nM; in that of Ac-SDDLEFWCHVK(Decanoyl)Y-NH2 (also: dimer via disulfide bond at Cys8) [dFz7-21Δ2.M13K (C10)], 1500 nM.

Another experiment addresses T1, FZD7 receptor of HEK293-TB cells. In words: cell-based or functional assay. This is another data set of the same source.
Ac-LPSDDLEFWCHVAY-NH2 (also: homodimer via Cys10 disulfide) [dFz7-21-M13A]: the “IC50 (nM), TOPbrite reporter assay in HEK293-TB cells stimulated with mWnt3a (50 ng/mL)” value (“IC50 (nM), TOPbrite reporter assay” for short) came to 913 nM and the “Reduction in fold potency vs. dimer” value was 82 fold.
Turning to Ac-LPSDDAEFWCHVMY-NH2 (also: homodimer via Cys10 disulfide) [dFz7-21-L6A], the “IC50 (nM), TOPbrite reporter assay” value was determined as 7120 nM and the “Reduction in fold potency vs. dimer” value came out at 642 fold.
For Ac-LPSDDLEFACHVMY-NH2 (also: homodimer via Cys10 disulfide) [dFz7-21-W9A], the “IC50 (nM), TOPbrite reporter assay” value stood at 640 nM and the “Reduction in fold potency vs. dimer” value stood at 58 fold.
For the molecule Ac-LPSDDLEFWCHVMA-NH2 (also: homodimer via Cys10 disulfide) [dFz7-21-Y14A], the “IC50 (nM), TOPbrite reporter assay” value worked out at 2960 nM and the “Reduction in fold potency vs. dimer” value came to 267 fold.
